Test results published in paper doi:10.1101/2020.04.11.018549v1 (biorxiv, 2020).

T1: RjoADP-GlcPPase (Rhodococcus jostii, UniProt Q0S3Y4)
T1 sequence (Q0S3Y4 1-404): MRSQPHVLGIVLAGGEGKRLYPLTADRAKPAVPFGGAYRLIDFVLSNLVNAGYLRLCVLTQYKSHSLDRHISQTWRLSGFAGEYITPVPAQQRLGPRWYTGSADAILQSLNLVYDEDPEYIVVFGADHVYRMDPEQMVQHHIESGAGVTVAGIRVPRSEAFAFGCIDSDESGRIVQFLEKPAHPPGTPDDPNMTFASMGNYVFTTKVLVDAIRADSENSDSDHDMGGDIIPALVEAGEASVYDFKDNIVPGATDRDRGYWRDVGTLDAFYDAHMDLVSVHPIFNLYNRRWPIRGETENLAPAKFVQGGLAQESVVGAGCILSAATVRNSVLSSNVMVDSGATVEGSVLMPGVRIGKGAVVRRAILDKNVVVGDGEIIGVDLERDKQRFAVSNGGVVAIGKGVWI

B1: RfaADP-GlcPPase (Rhodococcoides fascians) (protein)
chain: MRTQPHVLGIVLAGGEGKRLYPMTADRAKPAVPFGGAYRLIDFVLSNLVNAGYLRLCVLTQYKSHSLDRHISQTWRLSGFAGEYITPVPAQQRLGPRWYTGSADAIFQSLNLVYDEDPEYIVVFGADHVYRMDPEQMVQQHIDSGAGVTVAGIRVPRSEAFAFGCIDSDENGKITQFLEKPAQPPGTPDDPDVTYASMGNYVFTTKVLVDAIKADSENSDSDHDMGGDIIPALVEAGVASVYDFNDNVVPGATERDRGYWRDVGTIDAFYDAHMDLVSVHPIFNLYNRRWPIRGSAENLPPAKFVQGGLAQESVVGAGCILSAATVRNSVLSSNVMIDSGATVEGSVLMPGVRIGKGAVVRHAILDKNVVVGDGEIVGVDLERDRERFNVSAGGVVSVGKGVWI

Legend:
RjoADP-GlcPPase = target: T1, RjoADP-GlcPPase; assay: Pi release; type: biochemical; details: read-out: S0.5; no effector; ATP, 10 mM MgCl2, pH 8.0, 37°C
purified protein [1] = substrate: O=P(O)(O)O[C@H]1O[C@H](CO)[C@@H](O)[C@H](O)[C@H]1O; assay: purified protein; details: no effector, ATP, 10 mM MgCl2, pH 8.0, 37°C
purified protein [2] = substrate: Nc1ncnc2c1ncn2[C@@H]1O[C@H](COP(=O)(O)OP(=O)(O)OP(=O)(O)O)[C@@H](O)[C@H]1O; assay: purified protein; details: no effector, Glc-1P, 10 mM MgCl2, pH 8.0, 37°C

| Molecule | Km (RjoADP-GlcPPase) [µM] | K0.5 (purified protein [1]) [mM] | kcat (purified protein [1]) [s⁻¹] | K0.5 (purified protein [2]) [mM] |
| --- | --- | --- | --- | --- |
| O=P(O)(O)O[C@H]1O[C@H](CO)[C@@H](O)[C@H](O)[C@H]1O [Glc-1P] | 1800 |  |  |  |
| B1 |  | 1.17 ± 0.08 | 8.8 | 0.58 |
